Experimental data: US20040170622A1, “Methods and compositions for modulating XBP-1 activity” (President and Fellows of Harvard College, priority 2002, published 2004)

Legend:
[1] = tested on: IRE1α-mediated XBP-1 mRNA splicing; experiment: XBP-1 mRNA level and splicing in J558 cells (Northern blot, RT-PCR); assay type: cell-based; settings: J558, Tm 4 hrs; MG-132 10 μM, PS-341 10 μM, ZL3VS 50 μM, AdaAhxL3VS 50 μM
Experimental: (A) XBP-1 mRNA levels in ER stressed J558 cells treated with Tm for 4 hrs in the absence or presence of MG-132. Cells were pretreated with MG-132 for 1 hr before adding Tm. XBP-1 mRNA levels were determined by Northern blot analysis. […] (C) Effect of a panel of PIs on XBP-1 splicing. Cells were treated with Tm for 4 hrs in the absence or presence of MG-132 (10 μM), PS-341 (10 μM), Lactacystin (10 μM), ZL3VS (50 μM) or AdaAhxL3VS (50 μM), and XBP-1 mRNA splicing measured by RT-PCR analysis. (D) IRE-1α phosphorylation in NIH3T3 cells were treated with Tm as indicated after 2 hrs of pretreatment with MG-132 (10 μM).
Total RNA was prepared by using Trizol reagent, electrophoresed on 1.2% agarose, 6% formaldehyde gels and then transferred onto Genescreen Plus membrane, (NEN, Boston, Mass.). […] Probes for ERdj4 and p58^IPK were generated from cDNA excised from EST clones (ATCC, Manassas, Va.) using appropriate restriction enzymes (ERdj4, IMAGE: 1920927; p58^IPK, IMAGE:2646147).

XBP-1 mRNA = XBP-1 mRNA induction by cytokines in purified splenic B cells (Northern blot); assay type: cell-based, mouse; settings: 20 μg/ml cycloheximide added 30 min before IL-4, 4 hours
Experimental: (§1) Mouse splenocytes or purified B cells (purified mature B cells were isolated from spleen and lymph nodes by magnetic CD43 depletion or B220 magnetic bead selection, Miltenyi Biotech, Auburn Calif.) were plated at 1×10^6 cells/ml in complete media containing RPMI 1640 supplemented with 10% fetal calf serum (FBS)(Hyclone Laboratories), glutamine (2 mM), penicillin (50 units/ml), streptomycin (50 μg/ml), Hepes (100 mM), nonessential amino acids (1×) sodium pyruvate (1 mM) and β-ME (50 μM) and stimulated with anti-CD40(1 μg/ml)(Pharmigen) or LPS (20 μg/ml)(Sigma). Cytokines (R&D Systems, Minneapolis, Minn.) were used at IL-4 (20 ng/ml), IL-2 (20 ng/ml), Il-5 (20 ng/ml), IL-6 (20 ng/ml ), IL-10 (20 ng/ml ) and IL-13 (20 ng/ml). Stimulated B cells were split to a cell concentration of 1×10^6 cells/ml with fresh media every 24 h. The BCL1 (CWS13.20-3B3 ATCC CRL 1699) cell line was cultured in RPMI media supplemented with 10% FBS, gentamicin (20 μg/ml), and β-ME (50 μM). To induce differentiation cells were plated at 2×10^5 cells/ml and treated with recombinant mouse IL-2 and IL-5 (20 ng/ml) (R&D systems).
Total RNA was isolated using TriZo1 (Gibco-BRL) or Qiashedder/Rneasy RNA purification columns (Quiagen). Northern Blots were performed as described (Rengarajan et al., 2000 Immunity. 12:293-300). Briefly, 7-10 μg RNA were electrophoresed on 1.2% agarose, 6% formaldehyde gels transferred onto Genescreen membrane (NEN) and covalently bound to the membrane using UV Stratalinker (Stratagene). The following probes were used after ^32P-radiolabeling with the ReadyPrime labeling system (Amersham-Pharmacia): XBP-1 (15-830 of the murine coding region), GRP94 and GRP78 (both a kind gift of R. J. Kaufman Univ. of Michigan (Lee et al., 2002)), Blimp (Nco1-Sca1 fragment), c-myc cDNA and Il-6 cDNA . […]
Since XBP-1 is required for terminal B cell differentiation, it was important to identify the stimuli that regulate XBP-1 gene expression. A plethora of cytokines (IL-2, IL-4, IL-5, IL-6, IL-10, IL-13) has been implicated in plasma cell differentiation both in vitro and in vivo (reviewed in Calame, K. L. (2001 Nat. Inimunol. 2: 1103-1108; Liu, Y. J., and Banchereau, J. (1997). Sem Immunol 9: 235; Zubler, 1997Sem. Hematol 34:13). It was possible that these cytokines effected terminal B cell differentiation by modulating XBP-1 gene expression. Thus, the ability of these cytokines to upregulate XBP-1 mRNA transcripts in B cells was tested. Purified splenic B cells were cultured for 24 h in the presence or absence of various cytokines and XBP-1 expression determined by Northern blot analysis. […] XBP-1 mRNA levels were determined by Northern blot analysis with γ-actin as control. […] XBP-1 mRNA levels were determined as above. […]

[2] = target: XBP-1s (spliced form of murine XBP-1 protein, 371 aa) (mouse) (UniProt O35426); experiment: cell-based or functional assay
BCL-1 cells = experiment: IgM secretion by retrovirally transduced BCL-1 cells (ELISA); assay type: cell-based
Experimental: as §1
(§2) Assays to measure immunoglobulin or cytokine levels in culture supernatants were performed as described (e.g., Hodge et al., 1996 Immunity. 4:397-405 or Science. 1996 274:1903-5).
The XBP-1 cDNAs for the unspliced (XBP-1u/s) and the spliced (XBP-1s) forms were PCR-amplified from the total RNA of untreated and tunicamycin treated NIH3T3 cells, respectively, with a primer set (5′-[…]-3′ (SEQ ID NO: 7) and 5′-[…]-3′) (SEQ ID NO: 8). XBP-1u form was generated by a PCR-based mutagenesis from XBP-unspliced/s cDNA so that the two G residues at position 532 and 535 were changed to A without changing amino acid sequences in the XBP-1u open reading frame. Numbers are based on the sequences from gene bank database (NM_013842 [gi:13775155]). These XBP-1 cDNAs were inserted into the GFP-RV retroviral vector by using blunt end ligation (Sambrook et al., 1989). EFFECTENE transfection (Quiagen) was used to introduce the DNA into the Phoenix cell line as described by manufacturer (e.g., Reimold et al., 2001 Nature. 412:300-7 or Int Immunol. 2001 13:241-8). Viral supernatants were harvested after 48 hours and frozen at −80° C. for later use. B cells were purified from mouse spleens using CD43 depletion or positive selection with B220+ magnetic beads as described by the manufacturer (MidiMacs, Miltenyi Biotech). B cell purity was generally near 95% as confirmed by flow cytometry. The B cells (10^6 cells /ml) were then activated in culture with LPS 10 μg/ml and F (ab′)2 anti-IgM (5 μg/ml Southern Biotechnology Associates Inc.) for 24 hours. […]

XBP-1^−/− B cells = experiment: Ig production by retrovirally transduced XBP-1-/- primary B cells (ELISA); assay type: cell-based, mouse; settings: LPS 10 μg/ml 72 h
Experimental: as §2
(§3) The XBP-1 cDNAs for the unspliced (XBP-1u/s) and the spliced (XBP-1s) forms were PCR-amplified from the total RNA of untreated and tunicamycin treated NIH3T3 cells, respectively, with a primer set (5′-[…]-3′ (SEQ ID NO: 7) and 5′-[…]-3′) (SEQ ID NO: 8). XBP-1u form was generated by a PCR-based mutagenesis from XBP-unspliced/s cDNA so that the two G residues at position 532 and 535 were changed to A without changing amino acid sequences in the XBP-1u open reading frame. Numbers are based on the sequences from gene bank database (NM_013842 [gi:13775155]). These XBP-1 cDNAs were inserted into the GFP-RV retroviral vector by using blunt end ligation (Sambrook et al., 1989). EFFECTENE transfection (Quiagen) was used to introduce the DNA into the Phoenix cell line as described by manufacturer (e.g., Reimold et al., 2001 Nature. 412:300-7 or Int Immunol. 2001 13:241-8). Viral supernatants were harvested after 48 hours and frozen at −80° C. for later use. B cells were purified from mouse spleens using CD43 depletion or positive selection with B220+ magnetic beads as described by the manufacturer (MidiMacs, Miltenyi Biotech). B cell purity was generally near 95% as confirmed by flow cytometry. The B cells (10^6 cells /ml) were then activated in culture with LPS 10 μg/ml and F (ab′)2 anti-IgM (5 μg/ml Southern Biotechnology Associates Inc.) for 24 hours. The 1 ml of activated B cells (10^6 cells/ml) were mixed with 4 μg of polybrene and 1 ml of virus-containing supernatant and spun at 1000 g for 45 minutes at 24° C. Cells were incubated for 24-36 h at 37° C. and then GFP+ cells were flow sorted and returned to culture with and without stimulation.
The effects of these three different forms of XBP-1 on Ig secretion were compared in wild type and XBP-1^−/− B cells. In vitro activated splenic B cells were transduced using retroviruses expressing bicistronic mRNA encoding XBP-1u/s, XBP-1s, XBP-1u or control GFP. In FIGS. 5(A) and (B) purified B cells from wt and XBP-1^−/− mice were activated in culture with LPS 10 μg/ml and F (ab′)2 anti-IgM (5 μg/ml) for 24 hours. Retroviral transduction with GFP alone (GFP-Rv), XBP-1u/s (XBP-1u/s GFP Rv), XBP-1s (XBP-1s GFP Rv) or XBP-1u (XBP-1u GFP Rv) of activated B cells was performed. Cells were incubated for 24-36 h at 37° C. and then GFP+ cells were flow sorted and then returned to culture with LPS stimulation (10 μg/ml) for 72 h. IgM panel(A) and IgG2b panel (B) production analyzed by ELISA from culture supernatants of stimulated B cells. Experiments were done at least three times and standard deviation is shown.

IL-6 = IL-6 production by retrovirally transduced wt and XBP-1-/- B cells (ELISA, Northern blot); assay type: cell-based, murine; settings: LPS 72 h
Experimental: as §2, §3
In human multiple myeloma cells, XBP-1 was induced by IL-6 treatment and implicated in the proliferation of malignant plasma cells (Wen et al., 1999). However, no role for IL-6 in upregulating XBP-1 transcripts or in mediating splicing of XBP-1 RNA in mature B cells has been described (FIG. 6A). The ability of XBP-1 to induce IL-6 production in wt and XBP-1^−/− primary B cells was tested. As described above, in vitro activated murine splenic B cells were transduced using retroviruses expressing bicistronic mRNA for XBP-1u/s, XBP-1s, XBP-1u and control GFP. After cell sorting, GFP^+ cells were stimulated with LPS and assayed for cytokine production after 72 h. In FIG. 6 panel (A) purified B cells from wt and XBP-1^−/− mice were activated in culture with LPS 10 μg/ml and F(ab′)2 anti-IgM (5 μg/ml ) for 24 hours. Retroviral transduction with GFP alone (GFP-Rv), XBP-1u/s (XBP-1 u/s GFP Rv), XBP-1s (XBP-1s GFP Rv) or XBP-1u (XBP-1u GFP Rv) of activated B cells was performed. Cells were incubated for 24-36 h at 37° C. and then GFP+ cells were flow sorted and then returned to culture with LPS stimulation (10 μg/ml) for 72 h. Cytokine production was analyzed by ELISA from culture supernatants of stimulated B cells. Experiments were done at least three times and standard deviation is shown. In panel (B) Total RNAs were prepared from stimulated B cells above and XBP-1 mRNA levels were determined by Northern blot analysis with γ-actin control

Which “effect on Tm-induced XBP-1 mRNA splicing” value [1] does the source give for `CC(C)C[C@@H](/C=C/S(C)(=O)=O)NC(=O)[C@H](CC(C)C)NC(=O)[C@H](CC(C)C)NC(=O)CCCCCNC(=O)CCCCCNC(=O)CCCCCNC(=O)CC12CC3CC(CC(C3)C1)C2` [AdaAhx3L3VS] here?
Its value is “suppressed XBP-1 mRNA splicing as efficiently as MG-132”.

With `CC(C)C[C@@H](/C=C/S(C)(=O)=O)NC(=O)[C@H](CC(C)C)NC(=O)[C@H](CC(C)C)NC(=O)OCc1ccccc1` [ZL3VS] as the molecule, how does the “effect on Tm-induced XBP-1 mRNA splicing” value [1] read?
The value was “suppressed XBP-1 mRNA splicing as efficiently as MG-132”.

For `C[C@@H]1C[C@@H]([C@H](O)CC2CC(=O)NC(=O)C2)C(=O)[C@@H](C)C1` [cycloheximide, reference compound], which “effect on IL-4-induced upregulation of XBP-1 mRNA” value (XBP-1 mRNA) is on record?
The value was “did not affect the upregulation of XBP-1 mRNA in response to IL-4”.

Which results are given for “XBP-1u (unspliced form of murine XBP-1 protein, 267 aa) (from UniProt O35426 1-267)”?
fold induction of luciferase, XBP-luciferase reporter in NIH3T3 cells, 5 uM MG-132, with unspliced XBP-1 (fold induction) [2]: 5.8; fold induction of luciferase, XBP-luciferase reporter in NIH3T3 cells, 5 uM MG-132, without unspliced XBP-1 (fold induction) [2]: 41.9

How did the relative luciferase activity in NIH 3T3 cells (44.5 with 200 ng of spliced XBP-1 alone) (relative luciferase activity) [2] turn out when “XBP-N136 (N terminal 136 amino acids of the spliced form of XBP-1) (from UniProt O35426 1-136)” was run?
The relative luciferase activity in NIH 3T3 cells (44.5 with 200 ng of spliced XBP-1 alone) (relative luciferase activity) was 2.2.

B1: XBP-1u/s: vector expressing XBP-1 mRNA giving the unspliced form and, upon IRE-dependent splicing, the spliced form (protein, UniProt O35426 1-267, looked up)
X-box-binding protein 1: MVVVAAAPSAATAAPKVLLLSGQPASGGRALPLMVPGPRAAGSEASGTPQARKRQRLTHLSPEEKALRRKLKNRVAAQTARDRKKARMSELEQQVVDLEEENHKLQLENQLLREKTHGLVVENQELRTRLGMDTLDPDEVPEVEAKGSGVRLVAGSAESAALRLCAPLQQVQAQLSPPQNIFPWTLTLLPLQILSLISFWAFWTSWTLSCFSNVLPQSLLVWRNSQRSTQKDLVPYQPPFLCQWGPHQPSWKPLMNSFVLTMYTPSL
modifications: GFP retroviral vector
notes: vector expressing XBP-1 mRNA giving the unspliced form and, upon IRE-dependent splicing, the spliced form
With B1 as the molecule, how does the “IgM secretion compared to vector alone controls” value (BCL-1 cells; GFP positive BCL-1 cells treated with IL-2 and IL-5 for 3 days) read?
Its value is “approximately threefold”.

And the Ig secretion (BCL-1 cells; GFP positive BCL-1 cells untreated with cytokine)?
Its Ig secretion is “neither XBP-1u/s nor XBP-1s forms were able to induce Ig secretion”.

What about the “secretion of IgM compared to control cells” value (XBP-1^−/− B cells) of the same molecule?
Its value is “approximately ten-fold”.

And the “IL-6 secretion over control” value (IL-6)?
The value was “approximately 2 fold”.
